# Results reported in patent US7790845B2, “Bacterial ion channel” (Children's Medical Center Corporation, priority 2001, dated 2010).
# Read-outs that look alike come from different tables or passages of the source. Marks after values point to notes of the source that are not given here.
# Tests used:
# Format in all cases: cell-based
# NaChBac = NaChBac (Halalkalibacterium halodurans (Bacillus halodurans), UniProt Q9KCR8, S273L); experiment: cell-based
# [1] = system: CHO-K1 cells or COS-7 cells; experiment: Ca2+/Na+ selectivity of wt and mutant NaChBac, reversal potential under bi-ionic conditions (Example 2); details: for PCa/PNa: external solution 80 NMDG-Cl, 50 CaCl2, 20 HEPES
# Experimental: (§1) Unless otherwise stated, the pipette solution contained (in mM); 147 Cs, 120 methanesulfonate, 8 NaCl, 10 EGTA, 2 Mg^2+-adenosine triphosphate, and 20 HEPES (pH 7.4). Bath solution contained (in mM); 140 NaCl, 10 CaCl2, 5 KCl, 10 HEPES (pH 7.4), and 10 glucose. For some experiments, NaCl was isotonically replaced by CaCl2.
# For reversal potential measurements to determine the relative permeabilities of Na^+ and Ca^2+, the internal pipette solution contained (in mM): 100 mM Na-Gluconate, 10 NaCl, 10 EGTA, 20 HEPES-Na (pH 7.4 adjusted with NaOH, [Na^+]total=140). The external solution was (in mM): 140 NMDG-Cl, 10 CaCl2, 20 HEPES (pH 7.4 adjusted with HCl) or 80 NMDG-Cl, 50 CaCl2, and 20 HEPES. The fast kinetics and small current amplitude of SKM1 in 10 mM [Ca^2+]o necessitated the use of 50 mM [Ca^2+]o for accurate determination of Erev. The permeability ratio of Ca2+ was estimated according to the following equation: PCa/Px=asi(exp(ErevF/RT)[(exp(ErevF/RT)+1]/(4ase) where R, T, F, and Erev are the gas constant, absolute temperature, Faraday constant, and reversal potential, respectively, and x represents Cs^+ or Na^+ (i, internal; e, external) (Hille 2001). For calculations of membrane permeability, activity coefficients for Ca^2+, Cs^+ and Na^+ were estimated as follows: as=γs[Xs] where activity, as, is the effective concentration of an ion in solution, s related to the nominal concentration [Xs] by the activity coefficient, γs·γs was calculated from the Debye-Hückel equation: log γs=−0.51*zs^2√μ/[1+3.8ασ√μ] where μ is the ionic strength of the solution, zs is the charge on the ion, and αs is the effective diameter of the hydrated ion in nanometers (nm). The calculated activity coefficients were γ(Cs)i=0.70, γ(Ca)e=0.331, γ(Na)i=0.75 and γ(Na)e=0.73. The liquid junction potentials were measured using a salt bridge as described by Neher (Neher 1992) and these measurements agreed within 3 mV to those calculated by the JPCalc program (P. Barry) within Clampex (Axon Instruments, Union City, Calif.).
# Reversal potentials of the NaChBac mutants were measured under bi-ionic conditions as described in the Methods. […] The average peak current amplitude measured at 0 mV obtained in 10 mM Ca^2+ Tyrode's solution or in 105 mM Ca^2+ solution is shown in FIG. 7B and normalized to the current amplitude measured in 10 mM Ca^2+ solution (FIG. 7C).
# Relative permeability (PCa/PNa) was calculated as described in the Methods and Table 1. Since PCa/PNa had not been described for native Nav channels under these specific conditions, we also measured the relative permeability for SKM1, a skeletal muscle Na^+-selective channel (SKM1; Kraner, Rich et al. 1998) was expressed in COS and CHO cells and examined under identical conditions as NaChBac and similar to its mutants; Table 1).
# CHO-K1 or COS-7 cells [2] = experiment: Single channel properties of NaChBac, inside-out patch
# Source text: The single channel properties of NaChBac were studied in the inside-out patch configuration. Solutions were the same as used in whole-cell recording except that the pipette and bath solutions were reversed. The unitary single channel conductance was best fit with a slope of 12 pS±1 pS (n=7 cells). Consistent with the whole-cell current, single channels were activated by depolarization and both open and closed times varied as a function of voltage (not shown). An ensemble average of single channel currents from 5 cells resembled whole cell INaChBac with τact=10±3.5 ms and τinact=203±43 ms (FIG. 2D).
# CHO-K1 or COS-7 cells [3] = experiment: Ion selectivity and relative permeability of NaChBac (Example 1)
# Source text: The internal pipette solution used in determining the relative permeability of K^+ and Ca^2+ contained (in mM) 133 Cs-methanesulfonate, 5 CsCl, 10 EGTA, 10 HEPES (pH adjust to 7.2 with CsOH). External solution for K^+ permeability experiments contained 142 KCl, 10 HEPES, 10 glucose (pH 7.3 adjusted with KOH). External solution for Ca^+ permeability determinations contained 105 CaCl2, 10 HEPES, 20 glucose (pH 7.3, adjusted with Ca(OH2). The external solution used to study Ma^+ permeability contained (in mM): 140 NaCl, 5CsCl, 10 HEPES, 10 glucose (pH 7.3, adjusted with NaOH). Internal solutions were the same as described in the Detection of Current example. The relative permeability of Cs^+ versus Na^+ was calculated according to: PCs/PNa=([Na]o−[Na]iexp(ErevF/RT)/([Cs]iexp(Erev/RT)/([Cs]o) (1)
# The relative permeabilities of K^+ and Ca^2+ were evaluated under bi-ionic conditions, and the relative permeability of K^+ and Ca^2+ to Cs^+ was calculated according to the following equations: Pk/PCs=[Cs]iexp(ErevF/RT)/[K]o (2) PCa/Pcs=([Cs]iexp(ErevF/RT){exp(ErevR/RT)+1}/4[Ca]o) (3)
# INaChBac was weakly permeant to Ca^2+; no significant difference in current was observed by sequential perfusion with bath solution containing 1 and 10 mM [Ca^2+]o (FIG. 3B). In isotonic [Ca^2+]o (cations replaced with 105 mM Ca^2), in the inward current was <6% of that in normal [Na^+] (7.6±0.9 pA/pF at −10 mV, n=8; FIG. 3B). In contrast, INaChBac, amplitude correlated well with [Na^+]o (FIG. 3C, D). […] To estimate the relative ion selectivity of the channel, we measured changes in reversal potential while changing ionic composition. The calculated relative selectivity (±SEM) of NaChBac based on measured Erev was: PNa/PCa=72±10 (n=12); PNa/PCs=383±56(n=8); PNa/PK=171±16(n=8). INaCahBac selectivity for Na^+ is at least as high as traditional Nav channels (1, 14).
# CHO-K1 or COS-7 cells [4] = experiment: Whole-cell current, activation, inactivation and recovery of NaChBac (Example 1)
# [5] = system: CHO-K1 cells or COS-7 cells; experiment: Expression, voltage- and time-dependence of wt and mutant NaChBac (Example 2)
# Source text: NaChBac was cloned from Bacillus halodurans C-125 DNA by the polymerase chain reaction (PCR; BAB05220) (Ren, Navarro et al. 2001). The NaChBac construct containing an open reading frame of 274 amino acid residues was subcloned into a pTracer-CMV2 vector (Invitrogen, Carlsbad, Calif.) containing enhanced green fluorescent protein (eGFP). The skeletal muscle Na^+ channel SKM1 (M26643) was used in comparison to NaChBac under identical recording conditions and determinations of permeability ratios. Mutations were introduced into the NaChBac cDNA by site-directed mutagenesis (Quickchange™ site-directed mutagenesis kit; Stratagene; La Jolla, Calif.). All mutations were confirmed by DNA sequencing and restriction digestion. Wild-type NaChBac and mutant cDNAs were transfected into CHO-K1 cells or COS-7 cells with LipofectAMINE 2000 (Life Technologies, Rockville, Md.). Transfected cells were identified by fluorescence microscopy and membrane currents were recorded 24 to 48 hours after transfection.
# as §1
# The voltage dependence of NaChBac and mutants channel activation was determined from a holding potential of −100 mV. Instantaneous tail current were measured at −100 mV after a test potential of 40 ms duration. Normalized tail current amplitude was plotted vs. test potentials and fitted with a Boltzmann function. Measurements of steady state inactivation for NaChBac and mutants channel were resolved using 2 s prepulses and 1 s test pulse to −10 mV, 0 mV or +20 mV depending on the mutant's peak voltage. Cells were held at −100 mV for 20 s between pulses to allow the recovery from inactivation. Normalized test current amplitude was plotted vs. prepulse potential and fitted with a Boltzmann function. The activation and steady state inactivation curve were fitted by the Boltzmann equation: I=Imax−(Imax−Imin)/(1+exp((V−V1/2)/k)) where Imax and Imin are the maximum and minimum current values, V is the test voltage, V1/2 is the voltage activation midpoint and k is the slope factor.
# Whole-cell currents were recorded using an Axopatch 200B (Axon Instruments, Union City, Calif.) amplifier. Data were digitized at 10 or 20 kHz, and digitally filtered off-line at 1 kHz. Patch electrodes were pulled from borosilicate glass and had resistances of 2-5 MΩ. All experiments were conducted at 22°±2° C. For CHO cells, cell capacitance was 7.6±0.3 pF and for COS-7 cells was 13.9±0.6 pF. […] Series resistance (Rs) was compensated up to 90% to reduce all series resistance errors to <5 mV. Cells in which […] were discarded. Pooled data are presented as means±SEM. Statistical comparisons were made using two-way analysis of variance (ANOVA) and two-tailed t-test with Bonferroni correction; P<0.05 indicated statistical significance.
# [6] = calculated from measured Erev, n=8
molecule,measurement,setting,value
[Cd+2] [Cd^2+],reduction of the channel current,NaChBac,reduced the channel current to various degrees
[Co+2] [Co^2+],reduction of the channel current,NaChBac,reduced the channel current to various degrees
[Ni+2] [Ni^2+],IC50,NaChBac; read-out: concentration of agent needed to block INaChBac by 50% (IC50),720 µM
COCC(=O)O[C@]1(CCN(C)CCCc2nc3ccccc3[nH]2)CCc2cc(F)ccc2[C@@H]1C(C)C [mibefradil],IC50,NaChBac,22 µM
same,sensitivity of INaChBac to the blocker (figure legend),NaChBac,relatively insensitive
"COC(=O)C1=C(C)NC(C)=C(C(=O)OC)C1c1ccccc1[N+](=O)[O-] [nifedipine, Nifedipine]",IC50,NaChBac,2.2 µM
COCCOC(=O)C1=C(C)NC(C)=C(C(=O)OC(C)C)C1c1cccc([N+](=O)[O-])c1 (stereo not drawn) [nimodipine],IC50,NaChBac,1 µM
"NC1=N[C@H](O)[C@H]2[C@H]3O[C@]4(O)O[C@@H]([C@@H](O)[C@@]2(N1)[C@@H]4O)[C@]3(O)CO [tetrodotoxin, Tetrodotoxin]",block of INaChBac,NaChBac,completely insensitive
same,sensitivity of INaChBac to the blocker (figure legend),NaChBac,insensitive
"SKM1: skeletal muscle Na+ channel SKM1 (M26643), used in comparison to NaChBac [reference compound]",PCa/PNa,[1],0.32 ± 0.07 (n = 8)^c
ω-Agatoxin IVA,block of INaChBac,NaChBac,ineffective
ω-Conotoxin GVIA,block of INaChBac,NaChBac,ineffective
"NaChBac: bacterial voltage-sensitive Na+-selective ion channel from Bacillus halodurans, 274 amino acids, SEQ ID NO: 1; pore residues 190-195 LESWAS (protein, Bacillus Halodurans, pore residues 190-195 LESWAS) MKMEARQKQNSFTSKMQKIVNHRAFTFTVIALILFNALIVGIETYPRIYADHKWLFYRIDLVLLWIFTIEIAMRFLASNPKSAFFRSSWNWFDFLIVAAGHIFAGAQFVTVLRILRVLRVLRAISVVPSLRRLVDALVMTIPALGNILILMSIFFYIFAVIGTMLFQHVSPEYFGNLQLSLLTLFQVVTLESWASGVMRPIFAEVPWSWLYFVSFVLIGTFIIFNLFIGVIVNNVEKAELTDNEEDGEADGLKQEISALRKDVAELKSLLKQLK",τact of ensemble average of single channel currents,CHO-K1 or COS-7 cells [2]; 5 cells,10 ± 3.5 ms
same,τinact of ensemble average of single channel currents,CHO-K1 or COS-7 cells [2]; 5 cells,203 ± 43 ms
same,unitary single channel conductance,"CHO-K1 or COS-7 cells [2]; inside-out patch, n=7 cells",12 pS
same,slope of Erev as a function of [Na+]o,CHO-K1 or COS-7 cells [3],57.8 mV/decade
same,inward current in isotonic [Ca2+]o relative to that in normal [Na+],CHO-K1 or COS-7 cells [3]; 105 mM Ca2+,< 6%
same,peak current,CHO-K1 or COS-7 cells [3]; 140 mM [Na+]o/1 mM [Ca2+]o,1430 pA
same,current density,"CHO-K1 or COS-7 cells [3]; 140 mM [Na+]o/1 mM [Ca2+]o, n=8",135.9±11 pA/pF
same,relative selectivity PNa/PCs,CHO-K1 or COS-7 cells [3]; [6],383±56
same,relative selectivity PNa/PK,CHO-K1 or COS-7 cells [3]; [6],171±16
same,relative selectivity PNa/PCa,"CHO-K1 or COS-7 cells [3]; calculated from measured Erev, n=12",72±10
same,peak current,CHO-K1 or COS-7 cells [3]; isotonic [Ca2+]o,87 pA
same,current density,"CHO-K1 or COS-7 cells [3]; isotonic [Ca2+]o (105 mM Ca2+), −10 mV, n=8",7.6±0.9 pA/pF
same,current in 10 mM Ca2+/NMDG solution compared to 10 mM Ca2+ solution with Na+,[1],almost undetectable
same,current on replacing 140 mM Na+/10 mM Ca2+ solution by isotonic (105 mM) Ca2+ solution,[1],practically undetectable
same,PCa/PNa,[1]; listed as wt NaChBac,0.15
same,current in 10 mM Ca2+/NMDG solution compared to 10 mM Ca2+ solution with Na+,[1]; listed as wt NaChBac,virtually eliminated
same,voltage of 50% steady-state inactivation,CHO-K1 or COS-7 cells [4],−40 mV
same,activation τ,"CHO-K1 or COS-7 cells [4]; at −10 mV, n=32",12.9 ± 0.4 ms
same,inactivation τ,"CHO-K1 or COS-7 cells [4]; at −10 mV, n=32",166 ± 13 ms
same,reversal potential of INaChBac,"CHO-K1 or COS-7 cells [4]; whole-cell, ENa=+72 mV",+70 mV
same,current in COS-7 cells relative to CHO-K1 cells,[5],4 to 6 times
same,GFP expressing/transfected cells with substantial or detectable currents,[5]; 24-48 hours after transfection,More than 98%
same,V1/2 act,[5]; Boltzmann fit of tail currents,−22 mV
same,τact,[5]; membrane voltage −10 mV,12.9 ± 0.4^a ms
same,τinact,[5]; membrane voltage −10 mV,166.0 ± 13^a ms
same,kact,[5]; slope factor of activation,7 mV/e fold
same,V1/2 inact,"[5]; steady state inactivation, 2 s prepulses",−40 mV
